Target: His-SUMO-tagged SH3 domain of c-Src (UniProt P12931)
Assay: pull-down; His-SUMO-c-Src-SH3 as bait on Ni2+ beads, cleaved ChoKα constructs as probes; equimolar (1:1, 25 µM); 200 mM KCl, 30 mM imidazole pH 8.5, 25 mM Tris pH 8.5, 10 mM MgCl2; three washes; SDS-PAGE, Coomassie; band intensities by ImageJ

Choline kinase alpha Δ49, wild type, sequence (P35790 50-457, stated change not applied): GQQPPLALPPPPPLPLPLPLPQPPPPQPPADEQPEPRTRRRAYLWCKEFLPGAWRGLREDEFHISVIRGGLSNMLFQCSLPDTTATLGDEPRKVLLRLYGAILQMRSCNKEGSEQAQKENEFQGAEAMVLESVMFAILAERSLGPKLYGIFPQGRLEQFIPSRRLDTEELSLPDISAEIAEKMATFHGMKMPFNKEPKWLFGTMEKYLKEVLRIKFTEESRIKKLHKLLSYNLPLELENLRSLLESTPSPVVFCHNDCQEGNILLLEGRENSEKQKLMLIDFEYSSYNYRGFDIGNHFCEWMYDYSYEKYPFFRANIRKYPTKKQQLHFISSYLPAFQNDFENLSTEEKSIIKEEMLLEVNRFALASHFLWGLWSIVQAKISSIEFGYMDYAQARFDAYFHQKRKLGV
Choline kinase alpha Δ49 P(59,60)A, sequence (P35790 other isoform, or with tags, fused parts or gaps mutant): as the sequence (P35790 50-457, stated change not applied) above, with P10A, P11A counted along it
Choline kinase alpha Δ49 P(61,62)A, sequence (P35790 other isoform, or with tags, fused parts or gaps mutant): as the sequence (P35790 50-457, stated change not applied) above, with P12A, P13A counted along it
Choline kinase alpha Δ49 P(72,73)A, sequence (P35790 other isoform, or with tags, fused parts or gaps mutant): as the sequence (P35790 50-457, stated change not applied) above, with P23A, P24A counted along it

Compared with “Choline kinase alpha Δ49, wild type (from UniProt P35790 50-457) (domain or fragment)”, “Choline kinase alpha Δ49 P(59,60)A (from UniProt P35790 50-457) (domain or fragment)” is higher in ratio of the ChoKα band intensity to the His-SUMO-cSrcSH3 band intensity: 0.69 for the first, 0.7 for the second.

Compared with “Choline kinase alpha Δ49 P(61,62)A (from UniProt P35790 50-457) (domain or fragment)”, “Choline kinase alpha Δ49 P(72,73)A (from UniProt P35790 50-457) (domain or fragment)” is higher in ratio of the ChoKα band intensity to the His-SUMO-cSrcSH3 band intensity: 0.2 for the first, 0.88 for the second.

Source: article PMC6864063
